Where two headings read alike, the source gives them in different places. One block for each binder: values may come before it.
Assays:
[1] = molecular target: T1, recombinant human CTLA4 protein with human IgG1 Fc tag at the C-terminus (Acro biosystems, Cat#CT4-H5255) (human, UniProt P16410 37-162); test: capture ELISA (plate coated with goat anti-human IgG F(ab')2 per paragraph 181), biotin human CTLA4-Fc, streptavidin-HRP, OD(450-630)
T1 construct: bought protein; also called human CTLA4-Fc; CTLA4-Fc; not shown: human IgG1 Fc tag at the C-terminus
T1 sequence (looked up): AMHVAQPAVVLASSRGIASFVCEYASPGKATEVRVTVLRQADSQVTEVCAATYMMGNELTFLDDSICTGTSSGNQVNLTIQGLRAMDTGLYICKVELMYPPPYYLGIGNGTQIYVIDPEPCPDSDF
Procedure: (§1) Plates were washed once with wash buffer (PBS+0.05% v/v Tween-20, PBST) and then blocked with 200 µl/well blocking buffer (PBST with 5% w/v non-fatty milk) for 2 hours at 37° C. […] After a final wash, plates were incubated with 100 µl/well substrate TMB (Innoreagents, Cat#TMB-S-002). The reaction was stopped in 15 minutes at room temperature with 50 µl/well 1M H₂SO₄, and the absorbance of the each well was read on a microplate reader using dual wavelength mode with 450 nm for TMB and 630 nm as the reference wavelength, then the OD (450-630) values were plotted against antibody concentration. Data was analyzed using Graphpad Prism software and EC₅₀ values were reported.
(§2) In the capture ELISA assay, the 96-well micro plates were coated with 2 µg/ml goat anti-human IgG (AffiniPure Goat Anti-Human IgG, F(ab′)₂ fragment specific, Jackson Immunoresearch, Cat#109-005-097) instead of the goat anti-mouse IgG F(ab′)₂ fragment, 100 µl/well.

[2] = molecular target: T1, recombinant human CTLA4 protein with …; test: competitive ELISA: antibody pre-mixed with biotin human CTLA4-Fc, added to plate coated with the benchmark; competitor: coated Yervoy
Procedure: (§3) Plates were washed once with wash buffer, blocked with 200 µl PBST with 5% w/v non-fatty milk, incubated for 2 hours at 37° C., and washed 4 times.
(§4) After incubation at 37° C. for 40 minutes, plates were washed 4 times again using wash buffer. Then the plates were added and incubated with 100 µl/well streptavidin conjugated HRP (1:10000 dilution in PBST, Jackson Immuno Research, Cat#016-030-084, 100 µl/well) for 40 minutes at 37° C. Plates were finally washed using wash buffer. Finally, TMB was added and the reaction was stopped using 1M H₂SO₄, and the absorbance of the each well was read on a microplate reader using dual wavelength mode with 450 nm for TMB and 630 nm as the reference wavelength, then the OD (450-630) values were plotted against antibody concentration. Data was analyzed using Graphpad Prism software and IC₅₀ values were reported.
as §2

[3] = molecular target: T1, recombinant human CTLA4 protein with …; test: cell-based or functional assay
[4] = molecular target: T2, recombinant human CTLA4-his protein (Acro biosystems, Cat#CT4-H5229) (human, UniProt P16410 37-162); test: BLI, Octet; antibody from cell supernatant on AHC sensor, CTLA4-his as analyte
T2 construct: bought recombinant protein; not shown: his tag
T2 sequence (looked up): T1 sequence (looked up)
Procedure: (§5) Briefly, AHC biosensors (anti-human IgG Fc capture, from ForteBio) were presoaked with 10 mM glycine (pH 1.5) for 3 seconds, and then dipped in a well with running buffer (0.5% w/v BSA in PBST) for 3 seconds, the soaking and dipping steps were repeated for three times. […] A new baseline was run for 180 seconds in another well with running buffer. […] Finally, sensors were presoaked with 10 mM glycine (pH 1.5) for 3 seconds, and then were dipped in a well with running buffer for 3 seconds, the soaking and dipping steps repeated for three times. The association and dissociation curves were fit to a 1:1 Langmuir binding model using ForteBio Data Analysis 8.1.

[5] = molecular target: T1, recombinant human CTLA4 protein with …; test: cell based blocking FACS: antibody pre-mixed with human CTLA4-Fc, added to Daudi cells; blocked ligands: cell surface CD80/CD86
Procedure: (§6) Daudi cells were harvested from cell culture flasks at the log phase, washed twice and re-suspended in PBS containing 2% v/v Fetal Bovine Serum (FACS buffer). […] Cells were washed twice and re-suspended in FACS buffer. Fluorescence was measured using a Becton Dickinson FACS Canto II-HTS equipment. Data was analyzed using Graphpad Prism software and IC₅₀ values were reported.

[6] = molecular target: T3, cynomolgus monkey CTLA4-his protein (Acro biosystems, Cat#CT4-C5227) (cynomolgus monkey, UniProt G7PL88 36-161); test: SPR, Biacore; antibody captured on anti-human IgG CM5 chip, CTLA4-his as analyte
T3 construct: bought recombinant protein; also called Cynomolgus CTLA4-his; not shown: his tag
T3 sequence: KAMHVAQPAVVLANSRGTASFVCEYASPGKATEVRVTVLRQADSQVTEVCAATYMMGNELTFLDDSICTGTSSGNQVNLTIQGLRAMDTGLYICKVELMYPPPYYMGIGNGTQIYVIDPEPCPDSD
Procedure: (§7) Un-reacted moieties on the biosensor surface were blocked with ethanolamine. […] The antigen-antibody association kinetics was followed for 2 minutes and the dissociation kinetics was followed for 10 minutes. The association and dissociation curves were fit to a 1:1 Langmuir binding model using BIAcore evaluation software. […]

[7] = molecular target: T2, recombinant human CTLA4-his protein …; test: as above
Procedure: as §7

[8] = molecular target: T1, recombinant human CTLA4 protein with …; test: cell based blocking FACS: antibody pre-mixed with human CTLA4-Fc, added to Daudi cells; blocked ligands: cell surface CD80/CD86; remark: listed apart in the source
Procedure: as §6, §2

[9] = molecular target: T3, cynomolgus monkey CTLA4-his protein …; test: SPR, Biacore T200; antibody captured, CTLA4-his as analyte
Procedure: (§8) Un-reacted moieties on the biosensor surface were blocked with ethanolamine. […] The antigen-antibody association kinetics was followed for 2 minutes and the dissociation kinetics was followed for 10 minutes. The association and dissociation curves were fit to a 1:1 Langmuir binding model using BIAcore evaluation software.

[10] = molecular target: T2, recombinant human CTLA4-his protein …; test: as above
Procedure: as §8

[11] = molecular target: T1, recombinant human CTLA4 protein with …; test: cell based blocking FACS: antibody pre-mixed with human CTLA4-Fc, added to Daudi cells; blocked ligands: cell surface CD80/CD86; remark: listed apart in the source
[12] = molecular target: T1, recombinant human CTLA4 protein with …; test: capture ELISA: antibody captured on coated plate (anti-human IgG Fc for the chimeric antibodies), biotin human CTLA4-Fc, streptavidin-HRP, OD(450-630)
Procedure: as §1
For the capture ELISA, AffiniPure Goat Anti-Human IgG, Fcy fragment specific (Jackson Immuno Research, Cat#109-005-008) was used instead of AffiniPure Goat Anti-Mouse IgG, F(ab′)₂ fragment specific, 100 µl/well.

[13] = molecular target: T1, recombinant human CTLA4 protein with …; test: cell based blocking FACS: antibody pre-mixed with human CTLA4-Fc (1 ug/mL), added to Daudi cells; blocked ligands: cell surface CD80/CD86
Procedure: as §6

[14] = molecular target: T1, recombinant human CTLA4 protein with …; test: competitive ELISA: antibody pre-mixed with biotin human CTLA4-Fc (65 ng/ml), added to plate coated with the benchmark; competitor: coated Yervoy
Procedure: as §3, §4

[15] = molecular target: T1, recombinant human CTLA4 protein with …; test: cell-based or functional assay; remark: listed apart in the source
[16] = molecular target: T1, recombinant human CTLA4 protein with …; test: capture ELISA: antibody captured on anti-mouse IgG F(ab')2 coated plate, biotin human CTLA4-Fc 26 ng/ml, streptavidin-HRP, OD(450-630)
Procedure: as §1

[17] = molecular target: T2, recombinant human CTLA4-his protein …; test: BLI, Octet; antibody at 5 ug/ml on AHC sensor, CTLA4-his as analyte
Procedure: as §5

[18] = molecular target: T2, recombinant human CTLA4-his protein …; test: BLI, Octet RED96; antibody on AHC sensor, CTLA4-his as analyte
Procedure: as §5

B1: huD1D5-V9 (antibody, human IgG4 S228P, kappa, V domains shown)
VH: EVQLVESGGGLVKPGGSLRLSCAASGFTFSDYGMAWVRQAPGKGPEWVAFISNLAYSVYYADTETGRFTISRDDAKNSLYLQMNSLRAEDTAVYYCARSGLPYAMDYWGQGTTVTVSS
VL: DIQMTQSPSSLSASVGDRVTITCRASQDISNYLNWYQQKPGKVPKLLIYYISRLHSGVPSRFSGSGSGTDFTLTISSLQPEDVATYYCQQGRMLPWTFGGGTKVEIKR
notes: humanized IgG4/kappa; cell supernatant on Octet, purified antibody in Biacore, ELISA, FACS and the functional assay; also called hu CTLA4 D1D5-V9; huDID5-V9
- EC50 [1]: 0.516 nM
- IC50 [2]: 0.642 nM
- EC50 of IL-2 release (GS-J1 T cells + GS-C1/CD80 cells + human CTLA4-Fc, IL-2 HTRF) [3]: 27.3 nM
- Kd [4]: 4.37 nM
- koff [4]: 0.000471 s⁻¹
- kon [4]: 108000 M⁻¹ s⁻¹
- IC50 [5]: 5.53 nM
- Kd [6]: 2.13 nM
- koff [6]: 0.000576 s⁻¹
- kon [6]: 271000 M⁻¹ s⁻¹
- Kd [7]: 3.02 nM
- koff [7]: 0.000519 s⁻¹
- kon [7]: 172000 M⁻¹ s⁻¹

B2: huC1D1-V8 (antibody, human IgG4 S228P, kappa, V domains shown)
VH: EVQLVESGGGLVQPGRSLRLSCTASGFTFSDNWMNWVRQAPGKGLEWVGQIRNKPYNYETYYSDSVKGRFTISRDDSKSIAYLQMNSLKTEDTAVYYCTGGMDYWGQGTTVTVSS
VL: DIQMTQSPSSLSASVGDRVTITCGASEIIYGALNWYQQKPGKSPKLLIYGATNLADGVPSRFSGSGSGTDFTLTISSLQPEDVATYYCQKILSPPPWTFGGGTKVEIKR
notes: humanized IgG4/kappa; cell supernatant on Octet, purified antibody in Biacore, ELISA, FACS and the functional assay; also called hu CTLA4 C1D1-V8
- EC50 [1]: 0.746 nM
- IC50 [2]: 1.71 nM
- EC50 of IL-2 release (GS-J1 T cells + GS-C1/CD80 cells + human CTLA4-Fc, IL-2 HTRF) [3]: 28.7 nM
- Kd [4]: 0.614 nM
- koff [4]: 0.00019 s⁻¹
- kon [4]: 309000 M⁻¹ s⁻¹
- Kd [6]: 7.49 nM
- koff [6]: 0.00112 s⁻¹
- kon [6]: 150000 M⁻¹ s⁻¹
- Kd [7]: 12 nM
- koff [7]: 0.00086 s⁻¹
- kon [7]: 71900 M⁻¹ s⁻¹
- IC50 [8]: 5.74 nM

The remaining lines, values ahead:

- EC50 [1]: 0.121 nM
- Kd [9]: 0.183 nM
- koff [9]: 8.76e-05 s⁻¹
- kon [9]: 478000 M⁻¹ s⁻¹
- Kd [10]: 0.399 nM
- koff [10]: 0.0001 s⁻¹
- kon [10]: 251000 M⁻¹ s⁻¹
- IC50 [11]: ~11.6 nM
- EC50 [12]: 0.445 nM
- IC50 [2]: 0.8 nM
- IC50 [13]: 6.22 nM
- EC50 of IL-2 release (GS-J1 T cells + GS-C1/CD80 cells + human CTLA4-Fc, IL-2 HTRF) [3]: 30 nM
- IC50 [14]: 0.338 nM
- IC50 [8]: ~9.72 nM
- EC50 of IL-2 release (GS-J1 T cells + GS-C1/CD80 cells + human CTLA4-Fc, IL-2 HTRF) [15]: 35.1 nM
- EC50 [16]: 0.0479 nM
B3: mouse anti-CTLA4 monoclonal antibody C1D1 (antibody, V domains shown)
VH: EVKLDETGGGLVQPGRPLKLSCVASGFTFSDNWMNWVRQSPEKGLEWVAQIRNKPYNYETYYSDSVKGRFTISRDDSKSSVYLQMNNLRVEDMGIYYCTGGMDYWGQGTSVTVSS
VL: DIQMTQSPASLSASVGETVTITCGASEIIYGALNWYQQKQGKSPQLLIYGATNLADGMSSRFSGSGSGRQYSLKISSLHPDDAATYYCQKILSPPPWTFGGGTKLEIK
notes: mouse mAb purified from hybridoma supernatant

- EC50 [1]: 0.156 nM
- IC50 [11]: 8.56 nM
- EC50 [12]: 0.505 nM
- IC50 [2]: 2.11 nM
- Kd [17]: < 0.001 nM
- koff [17]: < 1e-07 s⁻¹
- kon [17]: 525000 M⁻¹ s⁻¹
- EC50 of IL-2 release (GS-J1 T cells + GS-C1/CD80 cells + human CTLA4-Fc, IL-2 HTRF) [3]: 34 nM
- Kd [6]: 0.243 nM
- koff [6]: 0.000398 s⁻¹
- kon [6]: 1.64e+06 M⁻¹ s⁻¹
- Kd [7]: 0.629 nM
- koff [7]: 0.000422 s⁻¹
- kon [7]: 670000 M⁻¹ s⁻¹
- IC50 [8]: ~9.96 nM
- Kd [18]: 0.335 nM
- koff [18]: 0.000296 s⁻¹
- kon [18]: 884000 M⁻¹ s⁻¹
B4: chimeric C1D1 anti-CTLA4 antibody (antibody, human IgG4 S228P, kappa, V domains shown)
VH: B3 VH
VL: DIQMTQSPASLSASVGETVTITCGASEIIYGALNWYQQKQGKSPQLLIYGATNLADGMSSRFSGSGSGRQYSLKISSLHPDDAATYYCQKILSPPPWTFGGGTKLEIKR
notes: mouse variable domains on human IgG4/kappa, made in 293F cells
